Reference: patent US20230365671A1 (ONCOONE RESEARCH AND DEVELOPMENT, published 2023)

Key:
[1] = target: T1, oxMIF: recombinant human MIF immobilized into ELISA plates (transforming MIF to oxMIF) (human, UniProt P14174 2-115); assay: ELISA, antibody titrated on plate-immobilized recombinant human MIF (oxMIF), goat anti-human IgG(Fc)-HRP; EC50 of 4-parameter fit given as KD, two experiments
T1 construct: Same polypeptide as redMIF; differs in conformation (oxMIF isoform); also called immobilized MIF; immobilized oxMIF
T1 sequence (P14174 2-115 limits assumed): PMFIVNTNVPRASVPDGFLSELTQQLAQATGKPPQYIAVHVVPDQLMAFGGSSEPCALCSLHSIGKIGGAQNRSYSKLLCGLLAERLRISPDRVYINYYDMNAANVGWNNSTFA
Description: Recombinant human MIF diluted in PBS at 1 μg/ml was immobilized into ELISA plates overnight at 4° C. (transforming MIF to oxMIF according to Thiele et al., 2015). After blocking, serial dilutions of anti-oxMIF antibodies were added to the plates. Finally, bound antibodies were detected with Goat anti-human IgG(Fc)-HRP conjugate and tetramethylbenzidine (TMB) as substrate. The chromogenic reaction was stopped with 3M H₂SO₄ and OD was measured at 450 nm.

[2] = target: T2, Human oxMIF (human recombinant MIF treated with 0.2% Proclin300, oxMIF surrogate) (human, UniProt P14174 2-115, treated with 0.2% Proclin300 (active component 5-chloro-2-methyl-4-isothiazolin-3-one) for 3 h to transform MIF into an oxMIF surrogate); assay: SPR (Biacore 3000), antibody amine-coupled to CM5 chip, Proclin300-treated MIF 50-150 nM as analyte, 1:1 Langmuir with mass transfer; mean of flow cells 2-4, SD +/-2.30 nM
T2 construct: SPR analyte; also called Proclin300 treated MIF; soluble human oxMIF
T2 sequence (P14174 2-115 limits assumed): as above
Description: (§1) FC1 was used as reference cell and was only reacted with buffers. Mouse or human recombinant MIF were diluted in HBS-EP buffer (GE Healthcare) to concentrations of 50, 75, 100, or 150 nM in the presence of 0.2% Proclin300 (active component 5-chloro-2-methyl-4-isothiazolin-3-one; Sigma) to transform MIF into an oxMIF surrogate (Thiele M et al., 2015) for 3 h at room temperature. Proclin300 treated MIF was applied to immobilized anti-oxMIF antibodies at a flow rate of 30 μl/min for 3 min using a Biacore™ 3000 Instrument (GE Healthcare). Dissociation time was 300 seconds, and the chip was regenerated using 10 mM HCl for 3 minutes. The kinetics of the concentration series were analyzed by local simultaneous association/dissociation fitting of each binding curve after subtraction of background from the reference cell (FC1) using the iterative Langmuir 1:1 interaction model with mass transfer compensation provided by the BiaEvaluation 4.1 software (GE Healthcare). Data are represented as mean+/−SD (standard deviation) of the calculated KD values of Flow Cells 2-4.

[3] = target: T2, Human oxMIF (human recombinant MIF …); assay: SPR (Biacore 3000), antibody amine-coupled to CM5 chip, Proclin300-treated MIF 50-150 nM as analyte, 1:1 Langmuir with mass transfer; mean of flow cells 2-4, SD +/-0.83 nM
Description: as §1

Kd [1]	Kd [2]	Kd [3]	Binder
0.3 nM	6.06 nM		anti-oxMIF antibody C0108 (antibody, human IgG1, kappa, ADCC/ADCP enhancing mutations in the Fc portion) heavy: EVQLQESGGGLVQPGGSLRLSCAASGFTFSIYSMNWVRQAPGKGLEWVSSIGSSGGTTYYADSVKGRFTISRDNSKNTLYLQMNSLRAEDTAVYYCAGSQYLYGMDVWGQGTTVTVSSASTKGPSVFPLAPSSKSTSGGTAALGCLVKDYFPEPVTVSWNSGALTSGVHTFPAVLQSSGLYSLSSVVTVPSSSLGTQTYICNVNHKPSNTKVDKKVEPKSCDKTHTCPPCPAPELLGGPDVFLFPPKPKDTLMISRTPEVTCVVVDVSHEDPEVQFNWYVDGVEVHNAKTKPREEQFNSTFRVVSVLTVVHQDWLNGKEYKCKVSNKALPAPEEKTISKTKGQPREPQVYTLPPSREEMTKNQVSLTCLVKGFYPSDIAVEWESNGQPENNYKTTPPMLDSDGSFFLYSKLTVDKSRWQQGNVFSCSVMHEALHNHYTQKSLSLSPG light: DIQMTQSPSSLSASVGDRVTITCRSSQRIMTYLNWYQQKPGKAPKLLIYVGSHSQSGVPSRFRGSGSETDFTLTISGLQPEDSATYYCQQSFFTPLTFGGGTKVEIKRTVAAPSVFIFPPSDEQLKSGTASVVCLLNNFYPREAKVQWKVDNALQSGNSQESVTEQDSKDSTYSLSSTLTLSKADYEKHKVYACEVTHQGLSSPVTKSFNRGEC
0.3 nM		3.69 nM	anti-oxMIF antibody C0109 (antibody, human IgG1, kappa, ADCC/ADCP enhancing mutations in the Fc portion) heavy: EVQLQESGGGLVQPGGSLRLSCAASGFTFSIYSMNWVRQAPGKGLEWVSSIGSSGGTTYYADSVKGRFTISRDNSKNTLYLQMNSLRAEDTAVYYCAGSQYLYGMDVWGQGTTVTVSSASTKGPSVFPLAPSSKSTSGGTAALGCLVKDYFPEPVTVSWNSGALTSGVHTFPAVLQSSGLYSLSSVVTVPSSSLGTQTYICNVNHKPSNTKVDKKVEPKSCDKTHTCPPCPAPELLGGPDVFLFPPKPKDTLMISRTPEVTCVVVDVSHEDPEVQFNWYVDGVEVHNAKTKPREEQFNSTFRVVSVLTVVHQDWLNGKEYKCKVSNKALPAPEEKTISKTKGQPREPQVYTLPPSREEMTKNQVSLTCLVKGFYPSDIAVEWESNGQPENNYKTTPPMLDSDGSFFLYSKLTVDKSRWQQGNVFSCSVMHEALHNHYTQKSLSLSPG light: DIQMTQSPSSLSASVGDRVTITCRSSQRILTYLNWYQQKPGKAPKLLIYVGSHSQSGVPSRFRGSGSETDFTLTISGLQSEDSATYYCQQSFFTPLTFGGGTKVEIKRTVAAPSVFIFPPSDEQLKSGTASVVCLLNNFYPREAKVQWKVDNALQSGNSQESVTEQDSKDSTYSLSSTLTLSKADYEKHKVYACEVTHQGLSSPVTKSFNRGEC
